# Patent publication US12590158 (XIYUAN ANJIAN MEDICINE SHANGHAI, dated 2026)
# Residue numbers refer to the chain shown, from its start.
# B1: anti-TrkA antibody 5A3 (antibody, V domains shown)
# VH: QVQLQQSGAELMKPGASVKISCKAIGYTFSRYWIEWVKQRPGHGLEWIGEILPGRGVTNYNENFKGKATFTVDISSTTTYIQFSSLTSEDSAVYYCARSNYGDYDFWGQGTSLTVSS
# VL: QTVVTQESALTTSPGETVTLTCRSSSGAVTTSNHANWVQEKPDHLFTSLMGGTNNRAPGVPARFSGSLIGDKAALTITGAQTEDEAIYFCALWYSNHWVFGGGTKLTVL
# notes: Murine monoclonal antibody purified from hybridoma medium by protein G
# B2: anti-TrkA antibody 26E9 (antibody, V domains shown)
# VH: QVQLQQPGAELVKPGASVKLSCKSSGYTFTNYWMHWVKQRPGQGLEWIGEIYPSNGRTNYNEKFKNRATLTVDISSSTAYMQLSSLTSEDSAVYYCARSRYDPMEDWGQGTSVTVSS
# VL: QIVLTQSPAIMSASPGEKVTMTCSASSSVGYMHWYQQKSGTSPKRWIYDTSKLASGVPTRFSGSGSGTSYSLTISSMEAEDAATYYCQQWSSIPLTFGSGTKLEIK
# notes: as for B1
# B3: anti-TrkA antibody 42F5 (antibody, V domains shown)
# VH: B2 VH with K38R, S54N, T58V
# VL: B2 VL with I2V, Y86F, K102R
# notes: as for B1
# B4: anti-TrkA antibody 11G8 (antibody, V domains shown)
# VH: QVQLQQPGAELVKPGASVKLSCKASGYTFTSYWMHWVKQRPGQGLEWIGEINPNNGLTNYDEKFKTKATLTIDKSSRTAYIQLSSLTSEDSAVYYCAKYGNYVAFAFWGQGTLVTVSA
# VL: DIQMTQSPASLSATVGETVTITCRASENIYSYVAWYQQKQGKSPQLLVHNAKTLAEGVPSRFSGSGSGTQFSLKINGLHPEDFGSYYCQHHYGIPLTFGAGTKLELK
# notes: as for B1
# B5: anti-TrkA antibody 33H5 (antibody, V domains shown)
# VH: B4 VH with K19Q, M34I, D61I, T66N, R77N, I81M, S85G, S88P, F107Y
# VL: B4 VL with T14S, E17D, S31T, V33L, A51T, N76S, G77S, H79Q, S85T, I94V
# notes: as for B1
# B6: humanized anti-TrkA antibody 42F5-15 (antibody, V domains shown)
# VH: QVQLVQSGAEVKKPGASVKVSCKSSGYTFTNYWMHWVRQAPGQGLEWMGEIYPNNARVNYNEKFKNRVTMTVDISISTAYMELSRLRSDDTAVYYCARSRYDPMEDWGQGTTVTVSS
# VL: DVQLTQSPSSLSASVGDRVTITCSASSSVGYMHWYQQKPGKAPKRLIYDTSKLASGVPSRFSGSGSGTDYTLTISSLQPEDFATYFCQQWSSIPLTFGQGTRLEIK
# notes: 42F5-01 with NG55-56 of the VH mutated to NA55-56
# Target: T1, human TrkB extracellular region protein (Yiqiao Shenzhou 10047-H03H) (human, UniProt Q16620 32-430)
# T1 construct: extracellular domain; Bought protein
# Assay: ELISA, plate coated with human TrkB extracellular region protein, HRP goat anti-mouse Fc detection
# Procedure: (§1) Example 2: ELISA Detection of the Binding of Murine Anti-TrkA Antibodies to Human TrkA The binding abilities of the anti-TrkA antibodies were detected by using a TrkA extracellular region (33-417) protein comprising human Fc (Beijing ACROBiosystems Co., Ltd., TRA-H5259). Each well of a 96-well microtiter plate was coated with 50 ng of human TrkA, washed and blocked, and then added with serially diluted antibodies, and incubated at room temperature for 1 hour. After washing three times, horseradish peroxidase-conjugated goat anti-mouse Fc antibody (Biolegend, 405306) was added and incubated at room temperature for 1 hour. After washing three time, tetramethylbenzidine (TMB, Biolegend, 421101) was added for color development. 1M HCl was used to terminate the color development, and the absorbance values were read at 450 nm with a microplate reader.
# (§2) Example 7: Detection of the Binding of Murine Anti-TrkA Antibodies to TrkA Proteins of the Same Family Each well of a 96-well microtiter plate was coated with 50 ng of human TrkA extracellular region protein, human TrkB extracellular region protein (Beijing Yiqiao Shenzhou Technology Co., Ltd., 10047-H03H), human TrkC extracellular region protein (Beijing Yiqiao Shenzhou Technology Co., Ltd., 10048-H03H). The bindings of the anti-TrkA antibodies to human TrkA and the two proteins of the same family were detected according to the method described in Example 2.
# T1 sequence (Q16620 32-430): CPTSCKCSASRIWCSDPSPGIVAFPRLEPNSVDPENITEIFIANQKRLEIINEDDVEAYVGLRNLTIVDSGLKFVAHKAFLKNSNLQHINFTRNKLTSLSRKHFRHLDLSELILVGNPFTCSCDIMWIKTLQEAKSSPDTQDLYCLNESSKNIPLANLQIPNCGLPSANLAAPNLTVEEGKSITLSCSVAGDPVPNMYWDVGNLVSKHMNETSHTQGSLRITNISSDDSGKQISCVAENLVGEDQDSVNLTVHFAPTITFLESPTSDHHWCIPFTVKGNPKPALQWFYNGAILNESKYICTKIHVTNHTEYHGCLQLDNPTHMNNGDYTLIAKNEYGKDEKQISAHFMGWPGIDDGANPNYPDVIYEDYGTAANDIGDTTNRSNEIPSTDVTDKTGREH
row,Binder,binding result
1,B1,no binding (tested: 66.67 nM)
2,B2,no binding (tested: 66.67 nM)
3,B3,no binding (tested: 66.67 nM)
4,B4,no binding (tested: 66.67 nM)
5,B5,no binding (tested: 66.67 nM)

# Target: T2, mouse TrkA extracellular region fusion protein (fused to human Fc) (Yiqiao Shenzhou 51103-M02H) (mouse, UniProt Q3UFB7 34-420)
# T2 construct: extracellular domain; Bought fusion protein
# Assay: ELISA, plate coated with mouse TrkA extracellular region-hFc, HRP goat anti-mouse Fc detection
# Procedure: as §1
# (§3) In addition, the species cross-reactivities of anti-TrkA antibodies were detected with monkey TrkA (Hangzhou Haoyang Biotechnology Co., Ltd., HSP037-05), rat TrkA (Beijing Yiqiao Shenzhou Technology Co., Ltd., 80243-R03H), mouse TrkA (Beijing Yiqiao Shenzhou Technology Co., Ltd., 51103-M02H) extracellular region fusion protein (fused to human Fc).
# T2 sequence (Q3UFB7 34-420, stated change not applied): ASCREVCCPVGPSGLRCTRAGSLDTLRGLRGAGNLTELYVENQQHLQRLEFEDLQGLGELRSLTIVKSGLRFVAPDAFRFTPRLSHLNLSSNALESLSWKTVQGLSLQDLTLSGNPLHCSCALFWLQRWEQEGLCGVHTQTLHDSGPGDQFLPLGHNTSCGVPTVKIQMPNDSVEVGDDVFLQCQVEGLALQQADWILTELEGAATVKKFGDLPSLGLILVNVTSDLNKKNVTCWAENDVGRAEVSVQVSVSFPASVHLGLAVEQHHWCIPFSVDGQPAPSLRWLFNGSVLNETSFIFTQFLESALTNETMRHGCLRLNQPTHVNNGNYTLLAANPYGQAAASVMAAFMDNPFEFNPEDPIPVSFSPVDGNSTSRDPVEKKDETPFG
row,Binder,binding result
1,B1,binds
2,B2,binds
3,B3,binds
4,B4,binds
5,B5,binds

# Target: T3, full-length human TrkA expressed on cells (human, UniProt P04629 33-796)
# Assay: cell-based or functional assay
# T3 sequence (P04629 33-796): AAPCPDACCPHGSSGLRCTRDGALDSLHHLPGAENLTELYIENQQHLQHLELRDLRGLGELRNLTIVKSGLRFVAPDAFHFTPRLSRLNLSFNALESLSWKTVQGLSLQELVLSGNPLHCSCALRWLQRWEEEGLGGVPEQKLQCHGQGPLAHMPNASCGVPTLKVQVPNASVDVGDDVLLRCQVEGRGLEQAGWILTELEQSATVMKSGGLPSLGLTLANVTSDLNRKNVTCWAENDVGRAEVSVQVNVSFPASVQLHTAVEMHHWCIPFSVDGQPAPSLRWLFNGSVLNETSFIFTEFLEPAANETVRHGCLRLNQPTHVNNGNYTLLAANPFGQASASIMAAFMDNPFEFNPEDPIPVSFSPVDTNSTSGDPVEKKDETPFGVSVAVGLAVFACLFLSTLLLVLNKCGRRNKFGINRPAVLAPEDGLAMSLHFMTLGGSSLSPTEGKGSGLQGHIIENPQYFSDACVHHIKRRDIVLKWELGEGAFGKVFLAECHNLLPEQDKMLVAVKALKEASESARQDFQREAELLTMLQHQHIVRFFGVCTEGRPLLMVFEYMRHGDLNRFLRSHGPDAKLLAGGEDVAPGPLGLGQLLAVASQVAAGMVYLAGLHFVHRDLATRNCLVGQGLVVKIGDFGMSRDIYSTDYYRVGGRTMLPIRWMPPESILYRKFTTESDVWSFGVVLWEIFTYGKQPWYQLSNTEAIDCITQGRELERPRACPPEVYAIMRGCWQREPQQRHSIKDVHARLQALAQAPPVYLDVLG
row,Binder,inhibition of NGF-induced TrkA/Ba/F3 cell proliferation at 2.5 µg/mL (16.67 nM) or higher
1,B1,100%
2,B2,100%
3,B3,100%
4,B4,100%
5,B5,100%

# Target: T3, full-length human TrkA expressed on …
# Assay: cell-based or functional assay
# Remark: another data set of the same source
row,Binder,IC50 of inhibiting NGF-induced TrkA/Ba/F3 cell proliferation
1,B1,422 pM
2,B2,1540 pM
3,B3,1250 pM
4,B4,1650 pM
5,B5,413 pM

# Target: T4, human TrkC extracellular region protein (Yiqiao Shenzhou 10048-H03H) (human, UniProt Q16288 32-429)
# T4 construct: extracellular domain; Bought protein
# Assay: ELISA, plate coated with human TrkC extracellular region protein, HRP goat anti-mouse Fc detection
# Procedure: as §1, §2
row,Binder,binding result
1,B1,no binding (tested: 66.67 nM)
2,B2,no binding (tested: 66.67 nM)
3,B3,no binding (tested: 66.67 nM)
4,B4,no binding (tested: 66.67 nM)
5,B5,no binding (tested: 66.67 nM)

# Target: T5, TrkA extracellular region (33-417) protein comprising human Fc (ACROBiosystems TRA-H5259) (human, UniProt P04629 33-417)
# T5 construct: range 33-417; Bought fusion protein; also called human TrkA (33-417); human TrkA extracellular region
# Assay: competition ELISA, coated TrkA (33-417)-hFc, antibody titrated, competitor biotin-labeled human NGF
# Procedure: Each well of a 96-well microtiter plate was coated with 50 ng of TrkA extracellular region (33-417) protein fused to human Fc, washed three times and blocked with 3% BSA for 1 hour. […] Each well was added with 100 μl and incubated at room temperature for 30 minutes. […] Streptavidin-labeled horseradish peroxidase (Streptavidin-HRP, Biolegend, 405210) was added and incubated for 0.5 hours. After washing three times, TMB was added to the plate, and the absorbance at 450 nm was read by a microplate reader after the color development was terminated.
# T5 sequence (P04629 33-417 limits assumed): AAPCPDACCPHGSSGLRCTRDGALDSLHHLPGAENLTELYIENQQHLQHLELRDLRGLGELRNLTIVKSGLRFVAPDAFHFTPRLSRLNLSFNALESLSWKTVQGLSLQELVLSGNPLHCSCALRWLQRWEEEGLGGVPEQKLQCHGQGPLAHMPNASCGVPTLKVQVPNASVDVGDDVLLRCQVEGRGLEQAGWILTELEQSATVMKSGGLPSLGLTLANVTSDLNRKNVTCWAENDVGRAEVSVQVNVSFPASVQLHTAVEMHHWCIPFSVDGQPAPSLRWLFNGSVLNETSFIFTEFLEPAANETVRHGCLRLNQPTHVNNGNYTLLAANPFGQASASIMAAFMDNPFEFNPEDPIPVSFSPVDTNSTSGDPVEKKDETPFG
row,Binder,IC50
1,B1,1760 pM
2,B2,2040 pM
3,B3,2350 pM
4,B4,1900 pM
5,B5,1500 pM

# Target: T6, human TrkB expressed on CHO cells (TrkB/CHO, ThermoFisher K1491) (human, UniProt Q16620 32-822)
# T6 construct: whole, on cells
# Assay: flow cytometry on TrkB/CHO cells, FITC goat anti-human Fc
# Procedure: (§4) CHO-K1 was used as a negative control. The binding of the humanized antibodies to the four cell lines was detected by flow cytometry.
# (§5) The cells were cultured according to the manufacturer's instruction. The cells were harvested in the logarithmic growth phase, re-suspended in flow buffer (PBS+2% FBS, pH 7.4), and added into 96-well plate, 10^5 cells per well (50 µl). 50 µl of 100 µg/mL humanized anti-TrkA antibody was added, incubated at room temperature for 60 min, and centrifuged at 1200 rpm. The supernatant was discarded and the cells were washed 3 times. FITC-labeled goat anti-human Fc antibody (Abeam, ab97224) was diluted to 5 µg/mL with flow buffer and used to re-suspend the cells, incubated at room temperature for 30 min in the dark, centrifuged, and the supernatant was discarded. After washing 3 times, the cells were re-suspended with 7AAD solution (Biolegend, 420403), incubated for 10 min at room temperature, and the binding of the antibody was detected with a flow cytometer (BioRad, ZE5).
# T6 sequence (Q16620 32-822): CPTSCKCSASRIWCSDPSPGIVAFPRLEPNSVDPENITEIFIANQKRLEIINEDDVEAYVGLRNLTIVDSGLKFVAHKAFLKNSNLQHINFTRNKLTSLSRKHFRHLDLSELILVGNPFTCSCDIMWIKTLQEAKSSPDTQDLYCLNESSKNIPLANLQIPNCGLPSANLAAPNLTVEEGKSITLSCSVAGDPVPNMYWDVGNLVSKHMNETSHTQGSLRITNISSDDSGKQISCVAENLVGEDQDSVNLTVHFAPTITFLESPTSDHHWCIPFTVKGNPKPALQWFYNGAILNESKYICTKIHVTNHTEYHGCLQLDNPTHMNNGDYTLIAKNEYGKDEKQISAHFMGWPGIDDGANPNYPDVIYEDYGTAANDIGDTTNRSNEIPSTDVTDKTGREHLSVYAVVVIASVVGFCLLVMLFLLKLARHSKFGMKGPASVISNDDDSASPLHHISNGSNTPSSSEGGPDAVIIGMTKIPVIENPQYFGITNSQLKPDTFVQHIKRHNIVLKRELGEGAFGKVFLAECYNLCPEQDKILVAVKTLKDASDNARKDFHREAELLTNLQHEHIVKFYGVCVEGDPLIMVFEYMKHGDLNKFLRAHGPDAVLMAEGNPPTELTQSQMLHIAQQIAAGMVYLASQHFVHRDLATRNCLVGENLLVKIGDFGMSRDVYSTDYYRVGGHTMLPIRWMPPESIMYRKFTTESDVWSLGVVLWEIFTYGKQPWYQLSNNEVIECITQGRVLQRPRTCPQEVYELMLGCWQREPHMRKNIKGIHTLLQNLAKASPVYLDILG
row,Binder,binding result
1,B6,no binding

# Target: T7, human TrkC expressed on CHO cells (TrkC/CHO, ThermoFisher K1515) (human, UniProt Q16288 32-839)
# T7 construct: whole, on cells
# Assay: flow cytometry on TrkC/CHO cells, FITC goat anti-human Fc
# Procedure: as §4, §5
# T7 sequence (Q16288 32-839): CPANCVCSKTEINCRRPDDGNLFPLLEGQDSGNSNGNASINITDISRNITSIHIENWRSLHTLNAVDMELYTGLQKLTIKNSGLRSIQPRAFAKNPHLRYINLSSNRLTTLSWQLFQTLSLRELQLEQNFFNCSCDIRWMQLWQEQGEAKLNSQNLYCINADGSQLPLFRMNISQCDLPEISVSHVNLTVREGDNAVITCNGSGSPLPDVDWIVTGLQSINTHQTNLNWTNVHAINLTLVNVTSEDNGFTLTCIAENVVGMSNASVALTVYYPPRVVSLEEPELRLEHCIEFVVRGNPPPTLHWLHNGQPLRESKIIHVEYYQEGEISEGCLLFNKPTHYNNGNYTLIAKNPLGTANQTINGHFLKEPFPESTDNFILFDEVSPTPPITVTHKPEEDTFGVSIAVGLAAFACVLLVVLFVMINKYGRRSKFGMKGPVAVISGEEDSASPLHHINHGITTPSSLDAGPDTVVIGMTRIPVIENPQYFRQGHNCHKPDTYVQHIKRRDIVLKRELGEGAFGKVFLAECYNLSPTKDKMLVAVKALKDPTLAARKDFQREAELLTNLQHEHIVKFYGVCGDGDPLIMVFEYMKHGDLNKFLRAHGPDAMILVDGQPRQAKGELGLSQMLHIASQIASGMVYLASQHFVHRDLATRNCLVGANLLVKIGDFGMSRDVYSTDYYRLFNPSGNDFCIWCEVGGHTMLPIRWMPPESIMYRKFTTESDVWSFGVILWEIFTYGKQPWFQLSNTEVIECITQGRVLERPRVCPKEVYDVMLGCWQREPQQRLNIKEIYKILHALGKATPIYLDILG
row,Binder,binding result
1,B6,no binding

# Target: T8, rat TrkA extracellular region fusion protein (fused to human Fc) (Yiqiao Shenzhou 80243-R03H) (rat, UniProt P35739 33-418)
# T8 construct: extracellular domain; Bought fusion protein
# Assay: ELISA, plate coated with rat TrkA extracellular region-hFc, HRP goat anti-mouse Fc detection
# Procedure: as §1, §3
# T8 sequence (P35739 33-418, stated change not applied): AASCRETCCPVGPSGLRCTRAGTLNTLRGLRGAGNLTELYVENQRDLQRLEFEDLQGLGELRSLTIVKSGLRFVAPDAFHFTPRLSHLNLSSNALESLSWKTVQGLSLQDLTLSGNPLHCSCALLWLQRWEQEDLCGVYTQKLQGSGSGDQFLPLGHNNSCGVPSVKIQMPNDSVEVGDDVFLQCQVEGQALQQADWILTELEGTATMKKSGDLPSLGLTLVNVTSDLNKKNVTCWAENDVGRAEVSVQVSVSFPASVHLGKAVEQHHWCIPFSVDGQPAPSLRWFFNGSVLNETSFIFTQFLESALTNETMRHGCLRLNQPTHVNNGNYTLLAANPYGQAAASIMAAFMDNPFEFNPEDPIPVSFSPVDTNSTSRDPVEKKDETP
row,Binder,binding result
1,B1,binds
2,B2,binds
3,B3,binds
4,B4,binds
5,B5,binds

# Target: T5, TrkA extracellular region (33-417) …
# Assay: BLI (ForteBio Octet Red96), TrkA (33-417)-hFc captured on anti-human Fc sensor, antibody in solution
# Text: Example 3: Affinity Assay of Murine Anti-TrkA Antibodies Binding to Human TrkA The affinities of the antibodies were detected with Biomolecular Interaction Detection Platform (ForteBio Octet Red96 (PALL)).
# Human TrkA extracellular region (33-417) protein containing human Fc tag was fixed onto a chip by using an anti-human Fc capture sensor (Fortebio, 18-5088), and then bound to gradient concentrations of anti-TrkA antibody.
Binder,Kd,koff,kon
B1,15.5 pM,1.88e-05 s⁻¹,1.21e+06 M⁻¹ s⁻¹
B2,26.7 pM,2.46e-05 s⁻¹,923000 M⁻¹ s⁻¹
B3,2.18 pM,2.07e-06 s⁻¹,947000 M⁻¹ s⁻¹
B4,< 1 pM,< 1e-07 s⁻¹,992000 M⁻¹ s⁻¹
B5,16.2 pM,2.09e-05 s⁻¹,1.29e+06 M⁻¹ s⁻¹

# Target: fusion protein (fused to human Fc) containing only the portion of human TrkA extracellular region that binds NGF (TrkA 192-402) (ACROBiosystems TRA-H5258) (human) (UniProt P04629)
# Assay: ELISA, coated human TrkA (192-402)-hFc
# Sequence of fusion protein (fused to human Fc) containing only the portion of human TrkA extracellular region that binds NGF (TrkA 192-402) (ACROBiosystems TRA-H5258) (human) (P04629 192-402 limits assumed, form in doubt): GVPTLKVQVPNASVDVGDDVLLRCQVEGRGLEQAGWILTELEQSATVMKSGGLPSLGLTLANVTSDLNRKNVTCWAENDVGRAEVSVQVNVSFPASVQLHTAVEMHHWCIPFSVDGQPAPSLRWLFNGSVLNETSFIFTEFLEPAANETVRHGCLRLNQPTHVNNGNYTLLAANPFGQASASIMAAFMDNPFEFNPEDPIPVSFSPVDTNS
row,Binder,EC50
1,B1,154 pM
2,B2,68 pM
3,B3,134 pM
4,B4,71 pM
5,B5,173 pM

# Target: T3, full-length human TrkA expressed on …
# Assay: cell-based or functional assay
# Remark: another data set of the same source
row,Binder,IC50 of inhibiting NGF-induced TF-1 cell proliferation
1,B1,6490 pM
2,B2,1390 pM
3,B3,1300 pM
4,B4,1090 pM
5,B5,2140 pM

# Target: T5, TrkA extracellular region (33-417) …
# Assay: ELISA, coated human TrkA (33-417)-hFc, anti-mouse Fc-HRP
# Procedure: as §1
row,Binder,EC50
1,B1,242 pM
2,B2,99 pM
3,B3,128 pM
4,B4,114 pM
5,B5,204 pM
